Data on five proteins can be found in article PMC10024175, “Structuring supramolecular hyaluronan hydrogels via peptide self-assembly for modulating the cell microenvironment” (Materials Today Bio, 2023).

Data set [1] deals with the molecule itself. In words: transmission electron microscopy; 1 mM peptide in deionized water, pH 11 (NH4OH), negative staining with uranyl acetate, dried on the grid.
Data set [2] deals with the molecule itself. In words: FTIR spectroscopy; 10 mM peptide in D2O, pH 7, NaCl 0, 50, 100, 200, 300 and 400 mM; beta-sheet formation read as self-assembly.
Data set [3] deals with the molecule itself. In words: zeta potential; 1 mM peptide in ultrapure water, neutral pH; self-association of the peptide.

B1: (KI)3K peptide (peptide)
peptide: Ac-KIKIKIK-NH2
notes: rationally designed cationic amphipathic peptide; Synthesised on a rink amide MBHA resin, so the C-terminus is probably an amide (surmised); source: synthetic peptide (Fmoc solid-phase synthesis, purified by preparative RP-HPLC)
B1: the binding result in data set [1] is listed as “binds”.

B2: (KI)6K peptide (peptide)
peptide: Ac-KIKIKIKIKIKIK-NH2
notes: as for B1
Turning to B2, the binding result in data set [2] is given as “binds”.

B3: (KI)5K peptide (peptide)
peptide: Ac-KIKIKIKIKIK-NH2
notes: as for B1
On to B3, for which, in data set [3], the binding result is “binds”.

B4: (KI)2K peptide (peptide)
peptide: Ac-KIKIK-NH2
notes: as for B1
As to B4, the binding result in data set [1] is given as “binds”.

B5: (KI)4K peptide (peptide)
peptide: Ac-KIKIKIKIK-NH2
notes: as for B1
As to B5, in data set [1], the binding result was “binds”.
